Test results as given in patent US20190062438A1 (CSL, published 2019).
Substitutions are numbered along the chain they refer to. Where two headings read alike, the source gives them in different places. Blank lines part the entries; values can stand above or below the binder they belong to.

Columns and labels:
[1] = target: T1, soluble Homo sapiens CD131 comprising a C-terminal 6xHis tag (human, UniProt P32927 17-438); assay: SPR, kinetics, Fab over captured shCD131
T1 construct: truncated after Ser438, C-terminal 6xHis; also called shCD131; shβc
T1 sequence: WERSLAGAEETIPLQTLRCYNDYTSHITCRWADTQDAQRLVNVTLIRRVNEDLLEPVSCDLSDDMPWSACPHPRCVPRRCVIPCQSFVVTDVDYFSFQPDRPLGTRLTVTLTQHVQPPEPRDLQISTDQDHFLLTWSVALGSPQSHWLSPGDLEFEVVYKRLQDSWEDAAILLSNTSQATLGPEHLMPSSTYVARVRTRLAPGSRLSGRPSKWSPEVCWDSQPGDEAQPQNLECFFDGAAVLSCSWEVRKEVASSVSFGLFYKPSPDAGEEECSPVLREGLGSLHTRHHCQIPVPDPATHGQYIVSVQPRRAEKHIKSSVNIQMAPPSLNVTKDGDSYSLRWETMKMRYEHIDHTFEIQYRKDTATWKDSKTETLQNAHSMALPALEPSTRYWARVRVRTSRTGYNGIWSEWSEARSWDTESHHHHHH

human CD131 [2] = target: T2, human CD131 (human, UniProt P32927 17-897); assay: saturation binding of radio-iodinated Fab to TF1 cells (third of three values in the cell)
T2 construct: on transfected FS293F cells, TF-1 cells, human neutrophils and eosinophils, there together with the cytokine-specific alpha chains; also called hCD131; βc
T2 sequence: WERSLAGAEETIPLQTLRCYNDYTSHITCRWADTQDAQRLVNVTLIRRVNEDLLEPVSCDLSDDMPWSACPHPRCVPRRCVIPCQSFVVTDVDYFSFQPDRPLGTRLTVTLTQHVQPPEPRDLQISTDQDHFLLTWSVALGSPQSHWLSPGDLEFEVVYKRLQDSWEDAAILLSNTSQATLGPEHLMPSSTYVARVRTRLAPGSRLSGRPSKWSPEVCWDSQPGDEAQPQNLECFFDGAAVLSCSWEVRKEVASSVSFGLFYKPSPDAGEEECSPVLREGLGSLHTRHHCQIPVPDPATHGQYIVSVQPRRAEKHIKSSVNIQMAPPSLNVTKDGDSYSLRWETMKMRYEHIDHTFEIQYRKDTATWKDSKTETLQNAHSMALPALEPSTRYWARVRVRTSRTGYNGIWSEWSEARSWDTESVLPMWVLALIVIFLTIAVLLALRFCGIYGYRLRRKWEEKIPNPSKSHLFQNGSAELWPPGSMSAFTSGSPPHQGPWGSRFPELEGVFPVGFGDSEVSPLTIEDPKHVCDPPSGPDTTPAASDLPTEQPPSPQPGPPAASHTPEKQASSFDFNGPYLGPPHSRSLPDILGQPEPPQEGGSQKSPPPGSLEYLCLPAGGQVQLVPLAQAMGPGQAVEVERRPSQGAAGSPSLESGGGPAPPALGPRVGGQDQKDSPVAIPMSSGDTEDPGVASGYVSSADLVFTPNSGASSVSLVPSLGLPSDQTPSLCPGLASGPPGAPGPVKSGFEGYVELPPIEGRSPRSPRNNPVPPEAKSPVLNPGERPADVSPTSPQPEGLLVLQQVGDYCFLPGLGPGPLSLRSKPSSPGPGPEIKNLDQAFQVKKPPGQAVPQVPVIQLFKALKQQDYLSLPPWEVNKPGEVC
Protocol: (§1) Cytokines and antibodies were radio-iodinated using Pierce Pre-Coated Iodination tubes (Thermo Scientific) according to the manufacturer's instructions. MAb binding to cells expressing hβc was determined by incubating 1-2×10⁶ cells with radio-iodinated mAb at a range of concentrations at 23° C. for 1-2 hours with gentle mixing. Cell suspensions were then centrifuged through fetal calf serum (FCS) and radioactivity associated with the cells pellets was assessed by counting in a Wizard² 2470 Automatic Gamma Counter (Perkin Elmer, Rowville, VIC, Australia). Non-specific binding was assessed for each radio-iodinated mAb in the presence of at least a 500-fold excess of unlabeled mAb. […] Competition binding assays were performed essentially as previously described (41). Briefly 1-2×10⁶ cells were incubated with mAb or cytokine competitor at a range of concentrations at 4° C. for 45 minutes with gentle mixing. Radio-iodinated cytokine or mAb was then added and the mixture incubated at 23° C. for a further 1-2 hours with gentle mixing. Cell suspensions were then centrifuged through FCS and radioactivity associated with the cells pellets assessed by counting.

human CD131 [3] = target: T2, human CD131; assay: saturation binding of radio-iodinated Fab on human neutrophils
Protocol: (§2) Each point is the mean of duplicate determinations of cell-bound radio-iodinated antibody after subtraction of non-specific binding. Data from a single neutrophil binding experiment and a representative eosinophil binding experiment, n=2 is shown.
as §1, with “Radio-iodinated cytokine or mAb was then added and the mixture incubated at 23° C. for a further 1-2 hours with gentle mixing.” left out

human CD131 [4] = target: T2, human CD131; assay: saturation binding of radio-iodinated Fab to TF1 cells (first of three values in the cell)
Protocol: as §1

human CD131 [5] = target: T2, human CD131; assay: saturation binding of radio-iodinated Fab to TF1 cells (second of three values in the cell)
Protocol: as §1

[6] = target: T1, soluble Homo sapiens CD131 comprising a …; assay: SPR, Fab over captured shCD131
Protocol: Binding kinetics were measured using SPR with a BIAcore™ A-100 instrument (GE Healthcare Life Sciences). An anti-C-terminal Hexa-His antibody (3H3) was immobilized on spots 1, 2, 4 and 5 of each flow cell of a CM-5 sensor chip (GE Healthcare Life Sciences) using amine-coupling chemistry (116). […] As shβc is a dimer, kinetics assays were performed with shβc captured on the sensor surface, and purified Fab injected as the analyte. Avidity effects were avoided by the use of Fab rather than whole IgG.
shCD131 was captured on spots 1 and 5 of each flow cell for 2 minutes at a concentration of 0.4 μg/ml. […] For some analysis purified Fab was injected over each flow cell for 3 minutes and dissociation was monitored for a further 10 minutes. Regeneration of the surface was performed after each cycle with a 40 second injection of 25 mM glycine, pH 2.0. The analysis was performed with Fabs at several concentrations between 100 and 0.31 nM, with each concentration analyzed twice and in random order. The analysis was performed at a flow rate of 30 μl/min in HBS-EP buffer (10 mM Hepes, 150 mM NaCl, 3 mM EDTA, 0.005% Tween 20, pH 7.4) at 37° C. Responses from spots 2 and 4 of each flow cell, (in which shβc was not captured, but otherwise treated identically), were subtracted from those of spots 1 and 5 respectively to produce reference subtracted data. Reference subtracted responses from a blank injection comprising buffer alone were subtracted from the resultant sensorgrams to produce double referenced data suitable for kinetic analysis. Double-referenced sensorgrams were fitted using non-linear regression to a model describing 1:1 kinetics, including a term for mass transport limitation. The Rₘₐₓ value was fitted locally to account for slight deviations in the level of sCD131 captured, with association rate (kₐ), dissociation rate (kd) and equilibrium dissociation constant (KD) fitted globally.

human CD131 [7] = target: T2, human CD131; assay: saturation binding of radio-iodinated Fab to cells; row 'Average for all cells (±SEM)' (neutrophils, TF1 cells)
human CD131 [8] = target: T2, human CD131; assay: cell-based or functional assay
human CD131 [9] = target: T2, human CD131; assay: cell-based or functional assay; remark: listed apart in the source
human CD131 [10] = target: T2, human CD131; assay: cell-based or functional assay; remark: listed apart in the source
human CD131 [11] = target: T2, human CD131; assay: saturation binding of radio-iodinated IgG on human neutrophils
Protocol: as §2
as §1, with “Radio-iodinated cytokine or mAb was then added and the mixture incubated at 23° C. for a further 1-2 hours with gentle mixing.” left out

human CD131 [12] = target: T2, human CD131; assay: competition binding on purified human eosinophils: cells pre-incubated with the antibody, then equilibrated with 200 pM radio-iodinated IL-5; cell-bound c.p.m.
Protocol: (§3) Each point is the mean of duplicate determinations of cell-bound radioiodinated cytokine and error bars represent the standard deviation.
as §1

human CD131 [13] = target: T2, human CD131; assay: saturation binding of radio-iodinated antibody to TF1 cells (first of three values in the cell)
Protocol: as §1

human CD131 [14] = target: T2, human CD131; assay: saturation binding of radio-iodinated antibody to cells; row 'Average for all cells (±SEM)' (neutrophils, eosinophils, TF1 cells)
human CD131 [15] = target: T2, human CD131; assay: saturation binding of radio-iodinated antibody to human eosinophils (first of two values in the cell)
Protocol: as §2
as §1, with “Radio-iodinated cytokine or mAb was then added and the mixture incubated at 23° C. for a further 1-2 hours with gentle mixing.” left out

human CD131 [16] = target: T2, human CD131; assay: saturation binding of radio-iodinated IgG on human eosinophils
Protocol: as §2
as §1, with “Radio-iodinated cytokine or mAb was then added and the mixture incubated at 23° C. for a further 1-2 hours with gentle mixing.” left out

human CD131 [17] = target: T2, human CD131; assay: saturation binding of radio-iodinated antibody to TF1 cells (third of three values in the cell)
Protocol: as §1

human CD131 [18] = target: T2, human CD131; assay: saturation binding of radio-iodinated antibody to TF1 cells (second of three values in the cell)
Protocol: as §1

human CD131 [19] = target: T2, human CD131; assay: competition binding on purified human eosinophils: cells pre-incubated with the antibody, then equilibrated with 340 pM radio-iodinated IL-3; cell-bound c.p.m.
Protocol: as §3, §1

human CD131 [20] = target: T2, human CD131; assay: saturation binding of radio-iodinated antibody to human eosinophils (second of two values in the cell)
Protocol: as §2
as §1, with “Radio-iodinated cytokine or mAb was then added and the mixture incubated at 23° C. for a further 1-2 hours with gentle mixing.” left out

human CD131 [21] = target: T2, human CD131; assay: competition binding on TF-1 cells: cells pre-incubated with the cytokine, then equilibrated with 85 pM radio-iodinated 9A2-VR24.29; cell-bound c.p.m.
Protocol: as §3, §1

B2: 9A2-VR24 (antibody, V domains shown)
VH: EVQLLESGGGLVQPGGSLRLSCAASGFTFPWYRVHWVRQAPGKGLEWVSSIRSSGGFTYYADSVKGRFTISRDNSKNTLYLQMNSLRAEDTAVYYCARFYDSFFDIWGQGTMVTVSS
VL: DIQMTQSPSSVSASVGDRVTITCRASQGISSWLAWYQQKPGKAPKLLIYAASSLQSGVPSRFSGSGSGTDFTLTISSLQPEDFATYYCQQANSFPITFGQGTRLEIKR
IC50 GM-CSF, TF-1 proliferation (human CD131 [8]): 2500 pM
fold potency improvement (GM-CSF) over parental 9A2 (human CD131 [9]): 182 fold
IC50 GM-CSF, TF-1 proliferation (human CD131 [10]): 2500 pM
IC50 IL-3, TF-1 proliferation (human CD131 [10]): 726 pM
IC50 IL-5, TF-1 proliferation (human CD131 [10]): 23500 pM
pStat5 IC50 GM-CSF, TF-1 bla reporter (human CD131 [10]): 8.6 nM

B5: recombinant human GM-CSF (ligand, UniProt P04141 18-144, looked up)
chain: APARSYYSPSTQPWEHVNAIQEARRLLNLSRDTAAEMNETVEVISEMFDLQEPTCLQTRLELYKQGLRGSLTKLKGPLTMMASHYKQHCPPTPETSCATQIITFESFKENLKDFLLVIPFDCWEPVQE
modifications: radio-iodinated where used as label
notes: position probably counts on mature GM-CSF
IC50 (read off the curve) (human CD131 [21]): ~30 pM

Next, values leading:

Kd [1]: 100 pM
Kd (human CD131 [2]): 522 pM
Kd (human CD131 [3]): 384 pM
Kd (human CD131 [4]): 656 pM
Kd (human CD131 [5]): 668 pM
Kd [6]: 100 pM
koff [6]: 0.000418 s⁻¹
kon [6]: 4e+06 M⁻¹ s⁻¹
Kd (human CD131 [7]): 569 pM
B1: 9A2-VR24.29 Fab (Fab, V domains shown)
VH: B2 VH with T58P, A61N, D62Y, S63K
VL: B2 VL
notes: recombinant Fab; also called recombinant Fab fragment of 9A2-VR24.29

Kd (human CD131 [11]): 246 pM
IC50 (read off the curve) (human CD131 [12]): ~300 pM
IC50 GM-CSF, TF-1 proliferation (human CD131 [8]): 290 pM
IC50 IL-3, TF-1 proliferation (human CD131 [9]): 144 pM
IC50 IL-5, TF-1 proliferation (human CD131 [9]): 4670 pM
fold improvement of IC50 GM-CSF over parental 9A2 (human CD131 [9]): 1570 fold
fold improvement of IC50 IL-3 over parental 9A2 (human CD131 [9]): 41 fold
fold improvement of IC50 IL-5 over parental 9A2 (human CD131 [9]): 310 fold
Kd (human CD131 [13]): 361 pM
Kd (human CD131 [14]): 426 pM
Kd (human CD131 [15]): 730 pM
Kd (human CD131 [16]): 629 pM
Kd (human CD131 [17]): 393 pM
Kd (human CD131 [18]): 303 pM
IC50 (read off the curve) (human CD131 [19]): ~7 pM
Kd (human CD131 [20]): 528 pM
B3: 9A2-VR24.29 (antibody, V domains shown)
VH: B2 VH with T58P, A61N, D62Y, S63K
VL: B2 VL
notes: IgG4pK; also called 9A2-VR24.29 IgG

IC50 GM-CSF, TF-1 proliferation (human CD131 [8]): 880 pM
fold improvement in GM-CSF potency over parental 9A2 (human CD131 [9]): 518 fold
IC50 GM-CSF, TF-1 proliferation (human CD131 [10]): 880 pM
pStat5 IC50 GM-CSF, TF-1 bla reporter (human CD131 [10]): 4.1 nM
B4: 9A2-VR39 (antibody, V domains shown)
VH: B2 VH with P30S, W31H, R33H, V34M, H35L, R52N, S53G, S54R, G56R, F57V
VL: B2 VL
